In experiment [1] the target is T1, native Nodal protein in LCP, A375 and WM266 melanoma cells (Homo sapiens, UniProt Q96S42).
T1 construct: recognize the endogenous forms of Nodal protein in human melanoma cells; endogenous in cells; host or cells: human melanoma lines PES, A-375, SK-MEL, WM 266, LCM (blot); LCP, A375, WM266 (FACS)
T1 sequence (Q96S42 238-347): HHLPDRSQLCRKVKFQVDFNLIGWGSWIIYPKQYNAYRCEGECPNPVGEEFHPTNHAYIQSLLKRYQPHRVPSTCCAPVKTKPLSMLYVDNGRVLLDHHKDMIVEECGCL
Description: FACS staining of Nodal in fixed and permeabilized human melanoma cell lines with 3D1. The format is binding. The note with it: 0.1-2.0 μg/mL, dose-dependent. Here is the method:
LCP, A375 and WM266 melanoma cells were collected by centrifugation. After aspiration of supernatant, the cells were resuspended in 500 μL of PBS and formaldehyde was added to obtain a final concentration of 4%. Cells were fixed for 10 min at room temperature. After fixation, cells were permeabilized by adding 500 μL of PBS-Tween 20. 1×10^6 cells were aliquoted into each vial; 1 mL of PBS (incubation buffer) was added to each vial and cells were washed by centrifugation at 4000 rpm for 5 min at 4° C. Cells were resuspended in 100 μL of solution of 3D1 anti-Nodal antibody (primary antibody), diluted in PBS at the following concentrations: 0.1, 0.5, 1.0 and 2.0 μg/mL. A standard IgG1 isotype was used as negative control. Cells were incubated with the primary antibody for 1 h at 4° C. under shaking. After incubation, cells were washed by centrifugation in 1 mL of PBS, resuspended and incubated with a FITC-conjugated anti-mouse antibody (secondary antibody), diluted 1:1000 (1.0 μg/mL) in PBS, for 40 min at 4° C. in the dark under stirring. Cells were washed by centrifugation with 1 mL of incubation buffer, re-suspended in […] and analyzed on flow cytometer. Fluorescence was evaluated using the BD FACScalibur System.

Another experiment deals with C8161 melanoma cells. Description: Soft agar clonogenic / anchorage independent growth assay. The format is cell-based, human. As to conditions: three weeks in soft agar, vs untreated and IgG control. Here is the method:
Untreated cells, or cells treated with either IgG Control or 3D1 anti-Nodal antibody for 72 hours were cultured in soft agar for three weeks (soft agar clonogenic assay). […] C8161 cells were treated with either 4 μg/ml of either Santa Cruz (SC), or 3D1 function blocking anti-Nodal antibodies, or IgG Control and cultured in three dimensional cultures for 24 hours to measure their ability to engage in vasculogenic mimicry (VM).
C8161 melanoma cells (5,000 cells/well) were suspended in 0.35% agarose, RPMI 1640; 10% serum with of either 4 μg/ml mouse IgG control (Jackson ImmunoResearch, West Groove, Pa.) or 3D1 mAb (2.8 μg/ml) and were then overlayed onto a solidified layer of 0.5% agar; RPMI 1640; 10% serum in 6-well dishes. Cell clusters were allowed to form and were scored (50 cells or larger clusters) after 3 weeks in culture. Triplicate wells were averaged from separate experiments and presented as a percentage (mean±SEM) of IgG control.

Experiment [2] deals with C8161 metastatic melanoma cells. Description: C8161 lung colonization (metastasis) model in Nude mice. The class given is in vivo. As to conditions: for lung colonization: IP 3D1 vs IgG control. Here is the method:
Lung tumor burden was determined as the mean percentage of lung occupied by C8161 melanoma cell colonies calculated from at least 5 different lung sections per individual mouse (See FIG. 26). Experimental Protocol: 250,000 C8161 metastatic melanoma cells were injected i. v. in Nude mice and lung colonization established. Following colonization, animals received by i.p. delivery either 3D1 monoclonal anti-Nodal antibody (100 μg/injection) or control IgG over the next 10 days, every other day (5 total injections).
To evaluate the in vivo effects of 3D1 mAb, a metastatic melanoma lung metastasis model was established by injecting 250,000 C8161 cells intravenously in Nude mice. After 4 days during which cells were allowed to colonize the lungs, mice were separated into treatment and control groups. The treatment group received a total of 500 μg of 3D1 mAb versus 500 μg of irrelevant isotype IgG in the control group administered over 10 days (alternate day intraperitoneal injection (IP) of 100 μg of either 3D1 mAb or IgG). At the end of the treatment period, mice were sacrificed and lungs harvested and processed for histologic evaluation of lung tumor burden and immunohistochemistry. Lung tumor burden was determined by evaluating the mean percentage of lung tissue occupied by C8161 in at least 4 separate fields at low power (10× objective) in lungs from at least 4 separate mice for each group and performed by 2 different observers. A final mean±SEM was calculated from the separate means determined by the individual observers.
(§1) Four micron thick, formalin fixed, paraffin embedded tissue sections were prepared and immunohistochemistry was carried out on a Dako Plus autostainer (DAKO, Inc, Carpenteria, Calif.). Following antigen retrieval and blocking steps, sections were incubated in primary antibody for 60 mins, followed by appropriate biotinylated secondary antibody (Biocare Medical, Conrad, Calif.), and then streptavidin-horseradish peroxidase (Thermo Scientific Lab Vision). Color was developed with 3,3′-diaminobenzidine substrate (Thermo Scientific Lab Vision) and sections were counterstained with hematoxylin (Biocare Medical, LLC). As a negative control, adjacent serial sections were incubated with species appropriate irrelevant IgG (Jackson ImmunoResearch Labs) at the same concentration as primary antibodies. Similar to the lung tumor burden evaluation described above, mean percentage of positive staining±SEM was determined by 2 different observers, each calculating the ratio of positive cells/total number of cells×100 for 4 separate high power fields (63× objective) from at least 2 different mice per group.

The subject of experiment [3] is A375SM human metastatic melanoma cells. Put plainly: A375SM orthotopic xenograft in Nude mice. The class given is in vivo. Here is the method: Experiments were carried out to determine the in vivo effects of 3D1 mAb on primary melanoma. To this end, 500,000 C8161 cells were injected subcutaneously in Nude mice. Palpable tumors were then injected directly with either 700 μg of total 3D1 mAb or IgG control antibody (alternate day intratumoral injection of 100 μg over 14 days). Mice were then sacrificed and subcutaneous tumors harvested and processed as previously described. To evaluate the effect of 3D1 mAb in the presence of the BRAF(V600E) mutation, a third orthotopic xenograft model was established in Nude mice via subcutaneous injection of approximately 150,000 A375SM human metastatic melanoma cells. Mice were treated IP with 3D1 mAb or IgG control, as described above, or 3 mg/kg of dabrafenib.
as §1

A further experiment has as its target T2, recombinant Nodal (Homo sapiens, UniProt Q96S42).
T2 sequence (Q96S42 238-347): T1 sequence (Q96S42 238-347)
Put plainly: SPR dose-dependent binding of human recombinant Nodal to 3D1 immobilized on the CM5 sensor chip. More on the design: E. coli derived His238 Leu347, with an N-terminal Met; purchased R&D System 3218ND; host or cells: E. coli. The note with it: rhNodal injected, read-out: estimated KD. The source says:
Dose-dependent binding of human recombinant Nodal to 3D1 antibody immobilized on the CM5 sensor chip was characterized.

“Also recorded” adds a separate entry of the source.

Broadly, the Kd is the constant that tells how readily two partners part at equilibrium.

B1: 3D1: mouse monoclonal anti-Nodal antibody raised against hNodal(44-67); light chain SEQ ID NO:1, heavy chains SEQ ID NO:2 and 3 (protein)
light: DIKMTQSPASLSASVGETVTITCRASGNIHNYLAWYQQKQGKSPQLLVYNAKTLADGVPSRFSGSGSGTQYSLKINSLQPEDFGSYYCQHFWSTPHVRCWDQAGTETEAW
heavy 1: VKLVESGGGLVKPGGSLKLSCAASGFTFSSYAMSWVRQTPEKRLEWVASISSGGCTYYPDSVKGRFTISRDNARNILYLQMSSLRSEDTAMYYCARGSMITADGNSLLLCYGLLGSRNLXHR
heavy 2: VKLVESGGGLVQPGGSMKLSCVASGFTFRNYWMSWVRQSPEKGLEWVAEIRLKSDNYAARYAESVKGKFTISRDDSKSRLYLQMNSLRAEDTGIYYCTGIRRFAYWGQGTL
modifications: not fully specified; (120)..(120) Xaa can be any naturally occurring amino acid
Take B1: the “binding to native Nodal protein in cells (FACS)” value in experiment [1] was “bound native Nodal protein also in intact cells at very low concentrations”. Besides, the “clonogenicity / anchorage independent growth in soft agar” value with C8161 melanoma cells is recorded as “a decrease in clonogenicity”. Further, the “clonogenicity / anchorage independent growth in soft agar” value with C8161 melanoma cells (listed as 3D1 mAb) is recorded as “reduced ability to form non-adherent spheroidal clusters; also recorded: significant reduction in anchorage independent growth”. In experiment [2] (IHC, N=6), the “mean percentage (±SEM) of cells staining for p27 in lung colonies” value was 39.5%±17%, the “mean percentage (±SEM) of cells with nuclear localization of P-Smad2 in lung colonies” value turned out to be 39±8.9% and the “percentage (+/−SEM) of cells staining for Cyclin B1 in lung colonies” value was 25.9%±9.4%. Further, the “lung tumor burden: mean percentage (±SEM) of lung tissue occupied by C8161 colonies” value in experiment [2] (IP 100 μg alternate days over 10 days, N=8) is given as 25.8%±4.6%. Moreover, in experiment [2], the lung colonization entry is reported as “reduced lung colonization”. Further, the lung colonization result in experiment [2] (listed as 3D1 mAb) is “significantly reduced”. In addition, in experiment [3] (IHC, N=4), the “mean percentage (±SEM) of nuclear P-Smad2” value was 28.1%±2.6%. Further, the tumor volumes result in experiment [3] (after 8 days, vs IgG control, listed as 3D1 mAb) is “significantly reduced; also recorded: significantly smaller”. In the experiment with recombinant Nodal, the Kd was 6.6 nM.

(Values after US10508147B2, “Anti-nodal antibodies and methods of using same” (ANN AND ROBERT H. LURIE CHILDREN'S HOSPITAL OF CHICAGO, priority 2014, dated 2019).)
